Experiment [1] concerns the target protein on the CEM cell surface that binds L1AD3 (L1AD3 protein receptor, 27-35 kDa) (human).
Experiment [2] shares this target. Briefly: fluorescence spectroscopy, CEM cells in suspension, avidin-FITC.
Experiment [3] has the same target. This is another data set of the same source.

The values that follow come from patent publication US20030224997A1.

Positions of bridges follow the written chain, without caps; N, C: chain ends. No end group written: not given here. *: point of attachment. Biotin = O=C1N[C@H]2[C@H](CS[C@H]2CCCCC(=O)*)N1

A word on the Kd: it is the constant that tells how readily two partners part at equilibrium. A lower Kd goes with a tighter complex. Biotin-LKCNKLVPLFYKTC (disulfide 3-14) [biotinylated L1AD3 (btn-…), cyclized]: the Kd in experiment [1] is 6 µM. The molecule also registered a fluorescence increase over cells not incubated with biotinylated peptide in experiment [2] of 48%.

LKCNKLVPLFYKTC (disulfide 3-14) [L1AD3 peptide (…), cyclized]: the percent inhibition of binding of biotinylated L1AD3 in experiment [3] was 50%. Besides, the percent reduction of binding of biotinylated peptide in experiment [1] is 47%.
